Source: PMC3401432
Read-outs that look alike come from different tables or passages of the source.

What was measured:
[1] = molecular target: CryB, GAL4 binding domain fusion (pGBK-T7-cryB) (Rhodobacter sphaeroides); test: two-hybrid
[2] = molecular target: His-CryB, purified from E. coli (Rhodobacter sphaeroides); test: MST
[3] = molecular target: CryB, GAL4 binding domain fusion (pGBK-T7-cryB) (Rhodobacter sphaeroides); test: two-hybrid; remark: listed apart in the source

## SCHIC domain of AppA, GAL4 activation domain fusion (pGAD-T7) (domain or fragment)
[1]
  β-galactosidase activity, percent of the SV40 T antigen + p53 control: 8%

B1: MBP-AppA (full-length AppA tagged with maltose-binding protein) (natural protein)
chain: MQHDLEADVTMTGSDLVSCCYRSLAAPDLTLRDLLDIVETSQAHNARAQLTGALFYSQGVFFQWLEGRPAAVAEVMTHIQRDRRHSNVEILAEEPIAKRRFAGWHMQLSCSEADMRSLGLAESRQIVTVGRSLVADNTNIFSFDRIAAVRRFLSDVCAARTLAPDTPVEADTFALYALTEAQAGRSGRAKAVARLSDLLSTDPLGRLTEVEELLRAHAPTAADFARLFEACAERLTRALAEDRISRMQVTLAYSALQMALRRIHHLPDPQKSVGAVLVAGVPGHKPILEAALAAEMLRAVGWSTSVVHPESVAALAARLKTSRTSTLVVAPSLLEGTEQEADTLRFVSALRARTDLPGLSILVGGRLAQLPPSKLKDSGADAGFAHLALLPAALARVACPANADCCSMRACRMPASQCCDKRINPEFLLANVMPSVLTRISSRQDRRRSA
[2]
  Kd: 595 nM

B2: AppA full length, GAL4 activation domain fusion (pGAD-T7-appA) (natural protein)
chain: B1 chain
[3]
  β-galactosidase activity, percent of the SV40 T antigen + p53 control: 40%
